# Paper PMC8975821, “TOX4 facilitates promoter-proximal pausing and C-terminal domain dephosphorylation of RNA polymerase II in human cells” (Communications Biology, 2022)
# B1: His-tagged PP1β (enzyme, UniProt P62140 1-327, looked up)
# chain: MADGELNVDSLITRLLEVRGCRPGKIVQMTEAEVRGLCIKSREIFLSQPILLELEAPLKICGDIHGQYTDLLRLFEYGGFPPEANYLFLGDYVDRGKQSLETICLLLAYKIKYPENFFLLRGNHECASINRIYGFYDECKRRFNIKLWKTFTDCFNCLPIAAIVDEKIFCCHGGLSPDLQSMEQIRRIMRPTDVPDTGLLCDLLWSDPDKDVQGWGENDRGVSFTFGADVVSKFLNRHDLDLICRAHQVVEDGYEFFAKRQLVTLFSAPNYCGEFDNAGGMMSVDETLMCSFQILKPSEKKAKYQYGGLNSGRPVTPPRTANPPKKR
# notes: PP1β, catalytic subunit of protein phosphatase 1 beta; cDNA cloned into pFASTBAC.1; also called His-PP1β; source: High Five cells infected with baculovirus, purified (HisPur Ni-NTA magnetic beads, imidazole elution)
# Biological target: T1, 3× Flag-tagged TOX4 (UniProt O94842 1-621)
# T1 construct: TOX4, cDNA cloned into pFASTBAC.1; Also used as the parent (on) of the region row from the co-IP with TOX4 fragments, whose own constructs are not described; also called 3× Flag-TOX4; source: High Five cells infected with baculovirus, purified (anti-Flag M2 magnetic beads, eluted with 3× Flag peptide); also purified from High Five cells as the TOX4-PP1α complex
# T1 sequence (looked up): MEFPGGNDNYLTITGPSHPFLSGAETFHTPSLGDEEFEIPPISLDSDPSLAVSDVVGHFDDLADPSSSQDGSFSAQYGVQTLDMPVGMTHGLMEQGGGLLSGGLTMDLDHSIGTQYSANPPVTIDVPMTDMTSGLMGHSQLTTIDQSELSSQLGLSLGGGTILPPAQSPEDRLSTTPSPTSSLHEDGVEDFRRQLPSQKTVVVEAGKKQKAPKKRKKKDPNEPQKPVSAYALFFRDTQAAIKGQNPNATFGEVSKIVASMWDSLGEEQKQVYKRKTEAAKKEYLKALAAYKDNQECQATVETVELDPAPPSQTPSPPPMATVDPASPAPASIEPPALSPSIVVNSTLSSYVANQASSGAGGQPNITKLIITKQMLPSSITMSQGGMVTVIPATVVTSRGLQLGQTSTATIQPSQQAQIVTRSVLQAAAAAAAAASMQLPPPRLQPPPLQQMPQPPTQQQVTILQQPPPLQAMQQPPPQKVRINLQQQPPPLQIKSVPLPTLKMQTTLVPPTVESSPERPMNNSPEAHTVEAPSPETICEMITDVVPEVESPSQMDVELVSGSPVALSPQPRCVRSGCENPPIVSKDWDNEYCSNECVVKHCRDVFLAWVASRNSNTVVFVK
# Assay: co-IP; in vitro binding assay of individually purified TOX4 and PP1α, β or γ; PP1 co-immunoprecipitated with TOX4; Western blot, quantified by ImageJ
# Conditions: both partners purified
binder,measurement,value
B1,binding result,binds
